Measured values from publication PMC11487190 (2024).

Experiments:
[1] = test system: 30S ribosomal subunit; assay: toeprint (primer extension); details: tRNA-fMet, with TPP; Toeprint buffer, salt, pH and temperature not given in the material; scale: fold decrease of toeprint efficiency vs no TPP
[2] = test system: semi-synthetic tbpA aptamer (residues 1-89 + 3' anchoring sequence) (RNA, riboswitch, azide-modified U at 14 (clicked to Cy5)) GUUCUCAACGGGGUGCCACGCGUACGCGUGCGCUGAGAAAAUACCCGUCGAACCUGAUCCGGAUAACGCCGGCGAAGGGAUUUGAGGCUCCCCGGCCCCCCGGCC; assay: smFRET (TIRF); details: 20 mM MgCl2, 20 mM NaCl; 1 mM TPP; folded state 14% to 48%; Tris-HCl buffer, pH 7.5

With “tbpA riboswitch nascent transcript (toeprint)” the binding signal [1] was 2.2.

For `Cc1ncc(C[n+]2csc(CCOP(=O)(O)OP(=O)(O)O)c2C)c(N)n1`, the binding [2] was “yes”.
